Laboratory results published in the DeepSol protein solubility set.

Assay: soluble on expression in E. coli; label from the status in PepcDB or PDB records

Sequence | soluble on expression in E. coli
MNQWLKKKRESLGYTQESFAKEIGIAKTTYSSYEQGYRNPTVQTAKKMAKILQVPWTIFFDEEVLETYDF | not soluble
MEEVSSEMEVEVQNRQLSDSSPAQNVKKFGLKNSIQTNFGSDYVFQIVPKIDWTAIAVSLSTNTVKLYSPVTGQYYGECKGHSDTVNQIAFSSDSAASPHVLHSCSSDGTIRSWDTRSFQQVSRIDTGNDQEIFSFSYGGAADNLLAGGCKEQVLLWDWRNSKQVACLEESHMDDVTQVHFVPNKPNKLLSASVDGLICLFNTEGDINDDDHLESVINVGTSIGKIGFLGDGYKKLWCLTHIETLSIWNWEDGSCEVNLEKARELASDSWTQDNVDYFVDCHCPGGEDLWVIGGTCAGTVGYFPVNYKQPGSIGTAEAILGGGHIDVVRSVLQMPGEYGGAAGLFGWTGGEDGRLCCWKSDEDATEINRSWTSSELVVKPPRNRKKNRHSPY | not soluble
MADYTTIAAQPRNEFGKGFARRLRVAGQVPGVIYGVDVEAPIHFSINRLELHAVLRAHGVNAIIELDIEGEKHLTMIKHVDQNVLTLNADHVDLLAIKRGEKVEVEVPVVLTGETAPGTTLVQDADVVLVEADVLSIPEEITFSVEGLDVDSKVLAGDLAMPANTSLVADAETVIASVNHEEVAEEAEETEGEDAEEAPAAEGEE | soluble
MGIMADRLASMVVKATSPDGQIEGELRDRDAVSVAFRGDTYRHYTEYSLGTQLSRLALRMWTGYQRGYDEAVAEATGRPVSRSQETWDANRRRFRQEQAATTVTGMSTDGWIYIQNTGMTSWHVVIRQGTLSKLDEDQFVAELMDAYNTMITEYRFATADLRAKHYGVSFQPRNPPVKELRA | not soluble
MAHHHHHHMSDDDDKIYIYSDLFSKNFSDDEKDDSYEREKQVYSGSETQNAENEYSKLRAQNSTILNNYFDNDNIKNVENLKSNDPDQIDLILFPVNKNYYMNLFDGQLIENIHSIKLRKAGFYAIYVENNNNSKWDGIYFGLSRMQVELDYKLITKKNKDGGEYEKRNTSSYDNTESVQNTVGSEKEETENKNEETSNYNSNLNNEINKICKYNLDQTDILLDDSNSERRRNSKFKIKNTNYYDNLMLQNKYTNSILYDDDDDKNNTETYTCTFKTEDQIRVPSQKKKYIYLYNKYDNATLDLNVHTYMSLGMSILCKYSLLYCGKYNHIPRDPYTPFKKPVSILSLDGGGILTISTLLVLNRLEAELRKEIGSDDIKLIDCFDMVCGTSAGGLISLALLREIDLQDVSNMWPSTIKKVFEGNRNIISGIFFEGYDVNNVKDVFLERMGNKFMSSYKKFYCFVTATDVKHKPYKLFLIRNYTHKYNSINAESYDGINKVPLWLAAWATASAPTYLKGPSAEDIKKLGINIKPEIHLVDGALKASNPALIALEECARLNNKNLSTFIKEDLDTLVSIGTGQVPTKLTQSGASSKSASTFEILINSTHLLTRANDTHREVLQRLADRENTYFRFNVPHIGDIEIDSQDVRDFDLISKATQDYLFDEKFYEIKRLAHKLANNYIRSKYL | not soluble
SELPPEPQANGEAVGAGGGPIYYIYEEEEEEEEEEEEPPPEPPKLVNDKPHKFKDHFFKKPKFCDVCARMIVLNNKFGLRCKNCKTNIHEHCQSYVEMQRCFGKIPPGFHRAYSSPLYSNQQYACVKDLSAANRNDPVFETLRTGVIMANKERKKGQADKKNPVAAMMEEEPESARPEEGKPQDGNPEGDKKAEKKTPDDKHKQPGFQQSHYFVALYRFKALEKDDLDFPPGEKITVIDDSNEEWWRGKIGEKVGFFPPNFIIRVRAGERVHRVTRSFVGNREIGQITLKKDQIVVQKGDEAGGYVKVYTGRKVGLFPTDFLEEI | soluble
MSLKNNRHFLKFYCIRDLSWLSSVRASFIYSSFESIASSPFSSYIELRKKPVKFLLILFIALTLCDCGRSKETQFYLLTPISPQKNSRNSYNHLQIGVDEVSIPDYMKKPQLMIHQTPHHLTLEEFNQWAGALDKNITLVLTTNLSTLMPGVVVQTSPWNNKFHPDYHLQVMISQFEIDIHGNSTLRAEYFIYRKEELIYKGNAYYHIKVPLISIETLVQSMNTNLTHLTEEIARFFIKNTTKEGHHHHHH | not soluble
RDLKSEVKKRNIQLQFDYPEILSKILLYSNAGLSIKSSIERIVRQYEDEKKKNPKEYHYAYEELKMATVKMKSGVSEINAINQYGERCGLHNYIKLANIIEQNIRRGTGELSFALENELNRALVERKNTALKRGSEISTK | not soluble
GQYTFSMPSDSHVSSCSEDWVGYQRKCYFISTVKRSWTSAQNACSEHGATLAVIDSEKDMNFLKRYAGREEHWVGLKKEPGHPWKWSNGKEFNNWFNVTGSDKCVFLKNTEVSSMECEKNLYWICNKPYK | soluble
MGSDKIHHHHHHMNFTKIAVSAGCILALCAGCGANDTSSTKEKASSEKSGVTKEITASVNKMETIISKLNDSVEKGDQKEIEKKGKELNSYWLSFENDIRSDYPFEYTEIEKHLQPIYTEAQKDKPDAGKIKTESESLKASLEDLTEAKKSGKKASDQLAKAADEYKGYVKEQSDQLVKATEAFTGAVKSGDIEKSKTLYAKARVYYERIEPIAESLGDLDPKIDARENDVEEGDKWTGFHKLEKAIWKDQDISGEKATADQLLKDVKELDGSIQSLKLTPEQIVAGAMELLNEAGISKITGEEERYSRIDLVDLMANVEGSEAVYQTVKSALVKDHSDLTEKLDTEFSEFEVLMAKYKTNDQSYTSYDKLSEKQIRELSTKLTTLSETMSKIANVL | not soluble
MAHHHHHHMKGNKGANIAYPDKYHKVTEFFDREYGDLETCTKLNDCQKLLFYALRQQVEHGPCTSGAPFIWQVRERAKHDAWKQLGAMTKFEAMVHFVTHLEECIGGNVDWGEKLRDLNGMRDQQRVGVENGTGESNANEQTERGVSEAHWDADVQAHLQPSAENIEYLAREVMRLRGELQQVRPNRVVPTPIVVPPRKPIDYVSTKNIVPPARTLATVATRTALLNAQTTNNLVERQPQGWGEWFGLI | soluble
GSDLTYAYLVGLFEGDGYFSITKKGKYLTYELGIELSIKDVQLIYKIKKILGIGIVSFRKRNEIEMVALRIRDKNHLKSFILPIFEKYPMFSNKQYDYLRFRNALLSGIISLEDLPDYTRSDEPLNSIESIINTSYFSAWLVGFIEAEGCFSVYKLNKDDDYLIASFDIAQRDGDILISAIRKYLSFTTKVYLDKTNCSKLKVTSVRSVENIIKFLQNAPVKLLGNKKLQYLLWLKQLRKISRYSEKIKIPSNY | soluble
MSLDCFAPAVLGMPAFDRHATWQAMHATTHFIGRVGVAQVGLCAMNLALWDIQLKIEEVPLWRHLGPVKDRVKAYNTDGGWLTWTTAEVIDDMHHIINRGFDAVKMKLGRSDPMEDFQRVRAVRQAIGDDIKLMVDVNTVWDLETAIQWGKRLEELNVEWLEEPLHPFDVRSHAALAKAIRTPIAVGETVYTVYGFREYIAQEAAGVLQADVTKLSGIEEWLEVAAIGQTHGLQVIPHTNVQQNVHVQLAAATTNTPMIECCYESLFEIWENPVRVVDGFYTLPDVPGINGKLTETVLEKFRVSEGHHHHHH | soluble
MEKIAILVDVQNVYYTCREQYGRHFDYNQFWSQVTQNRTVVKANAYAIASKDPQQRQFHHILRGIGFEVMLKPFIQRSDGSAKGDWDVGIALDGYELAQEVDTVVLVSGDGDFEPLVTRIAQRFQVKVEVYGVPKLTAQHLIDVASQFHPIEHRLLL | not soluble
MGSDKIHHHHHHMSERLDENFSRAIDLMLACTGKIIISGMGKSGIIGQKIAATLSSTGTTAIFLHPAEAAHGDLGVVSEGDTVICLSKSGMTEELNFILPALRERKATIIAFTGNPRSYLAMNADVVLDTGVEQEACPYDLAPTSSTTAMLAMGDALAICLMKKKNFTDQEFALTHPKGSLGKQLTMRVGDVMATGDALPVVSEDAMLSDLILEMTSKRYGVSGVVDAEGKLTGIFTDGDLRRLVQTGESFLDKKAVEVMTPNPKTVAPDMKAKACLELLETHRITQLMVCDEKRCPVGIVHIHDLVTLGL | not soluble
MTRFSGKVALVTGSSNGIGRATAVLLAQEGAKVTITGRNADRLEETRQEILKSGVPEDHVLSIATDLATEKGQDELVNSTIQKFGRLDILVNNAGAAFNDDQGRVGVDQDVSVYDRIMQINMRSVVTLTQKAKEHLVKAKGEVVNVSSIGAGPQAQPTFMYYAMSKAALDQYTRSAAIDLIQYGVRVNSVSPGAVVTGFGEAMGMPADMHEKYGHFMESRKECIPCGKMGQPIDIANIIAFLADRKLSSYIIGQSIVADGGSTLVMGMQAHNFMDLLKQ | not soluble
